Earlier results on one substance are cited in paper PMC3800467.

The term Ki denotes a dissociation constant, usually derived from enzyme kinetics or from competition with a known ligand.

The data set addresses RRGHYY peptide.

Turning to TEM1 β-lactamase (from UniProt P62593), the inhibition constant Ki is 140 µM.
